From the supplement of paper PMC9233669
Fewer inactive variants are shown than the library holds.

What was measured:
biotinyl-Val-oxazolone = assay: self-aminoacylation, catalytic enhancement (BVO) (fold over background); higher = more active; k-Seq, kA / k0A0; sequences stand for … in GGGAAUGGAUCCACAUCUACGAAUUC…UUCACUGCAGACUUGACGAAGCUG
How it was run: (§1)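 Each biotinyl-aminoacyl-oxazolone, at 2–1250 μM, was incubated with mutagenized RNA pools (0.43 μM) carrying a 21-nt variable region. The 50 μL reactions contained HEPES/NaCl/KCl/MgCl2/CaCl2 buffer with 5% acetonitrile at pH 6.9–7.0 and ran for 90 minutes at room temperature. After streptavidin capture, RNA was measured by qPCR in triplicate and by Illumina sequencing, and catalytic enhancement was calculated as median kA over the uncatalyzed rate from a pseudo-first-order fit of per-sequence fraction reacted.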

biotinyl-Phe-oxazolone = assay: self-aminoacylation, catalytic enhancement (BFO) (fold over background); higher = more active; k-Seq, kA / k0A0; sequences stand for … in GGGAAUGGAUCCACAUCUACGAAUUC…UUCACUGCAGACUUGACGAAGCUG
How it was run: as §1

biotinyl-Ile-oxazolone = assay: self-aminoacylation, catalytic enhancement (BIO) (fold over background); higher = more active; k-Seq, kA / k0A0; sequences stand for … in GGGAAUGGAUCCACAUCUACGAAUUC…UUCACUGCAGACUUGACGAAGCUG
How it was run: as §1

biotinyl-Met-oxazolone = assay: self-aminoacylation, catalytic enhancement (BMO) (fold over background); higher = more active; k-Seq, kA / k0A0; sequences stand for … in GGGAAUGGAUCCACAUCUACGAAUUC…UUCACUGCAGACUUGACGAAGCUG
How it was run: as §1

biotinyl-Leu-oxazolone = assay: self-aminoacylation, catalytic enhancement (BLO) (fold over background); higher = more active; k-Seq, kA / k0A0; sequences stand for … in GGGAAUGGAUCCACAUCUACGAAUUC…UUCACUGCAGACUUGACGAAGCUG
How it was run: as §1

biotinyl-Trp-oxazolone = assay: self-aminoacylation, catalytic enhancement (BWO) (fold over background); higher = more active; k-Seq, kA / k0A0; sequences stand for … in GGGAAUGGAUCCACAUCUACGAAUUC…UUCACUGCAGACUUGACGAAGCUG
How it was run: as §1

| Sequence | self-aminoacylation (biotinyl-Val-oxazolone) | self-aminoacylation (biotinyl-Phe-oxazolone) | self-aminoacylation (biotinyl-Ile-oxazolone) | self-aminoacylation (biotinyl-Met-oxazolone) | self-aminoacylation (biotinyl-Leu-oxazolone) | self-aminoacylation (biotinyl-Trp-oxazolone) |
| --- | --- | --- | --- | --- | --- | --- |
| AAGUUUGCUAAUUUUCGCAAG [Fam3.1 aminoacylation ribozyme variant] | 1.1 | 0.884 | 1.07 | 1.06 | 1.23 | 1.85 |
| AAGUUUGCUACCAGUCGCAAG [Fam3.1 aminoacylation ribozyme variant] | 0.912 | 0.754 | 1.12 | 1.47 | 0.891 | 0.552 |
| AAGUUUGCUACGAGUCGCAAG [Fam3.1 aminoacylation ribozyme variant] | 0.876 | 1.05 | 0.656 | 0.922 | 0.671 | 0.978 |
| AAGUUUGCUACUAGUCACAAG [Fam3.1 aminoacylation ribozyme variant] | 1.02 | 2.36 | 0.962 | 0.969 | 0.772 | 1.29 |
| AAGUUUGCUACUAGUCGCACG [Fam3.1 aminoacylation ribozyme variant] | 0.846 | 1.28 | 0.967 | 1.02 | 1.1 | 1.73 |
| AAGUUUGCUACUCGUCGCAAG [Fam3.1 aminoacylation ribozyme variant] | 1.04 | 0.598 | 0.823 | 0.922 | 0.958 | 1.31 |
| AAGUUUGCUAGUAGUCGCAAU [Fam3.1 aminoacylation ribozyme variant] | 1.08 | 1.2 | 1.01 | 0.922 | 0.95 | 0.724 |
| AAGUUUGCUAGUAGUGGCAAG [Fam3.1 aminoacylation ribozyme variant] | 0.814 | 1.2 | 0.893 | 0.882 | 0.71 | 0.556 |
| AAGUUUGCUAUAAGUCGCAAG [Fam3.1 aminoacylation ribozyme variant] | 0.9 | 1 | 1.12 | 0.995 | 0.726 | 0.892 |
| AAGUUUGCUAUUAGUCACAAG [Fam3.1 aminoacylation ribozyme variant] | 1.3 | 1.85 | 1.19 | 1.24 | 1.16 | 1.28 |
| AAGUUUGCUAUUAGUCGCAUG [Fam3.1 aminoacylation ribozyme variant] | 0.79 | 1.98 | 1.01 | 0.953 | 1.21 | 0.858 |
| AAGUUUGCUAUUCGUCGCAAG [Fam3.1 aminoacylation ribozyme variant] | 0.862 | 0.857 | 0.985 | 1.23 | 0.902 | 0.872 |
| AAGUUUGCUAUUUGUCGCAAG [Fam3.1 aminoacylation ribozyme variant] | 0.819 | 1.05 | 1.04 | 0.936 | 0.989 | 1.2 |
| AAGUUUGCUCAUAAUCGCAAG [Fam3.1 aminoacylation ribozyme variant] | 0.766 | 0.71 | 0.812 | 0.699 | 0.726 | 0.658 |
| AAGUUUGCUCAUAGCCGCAAG [Fam3.1 aminoacylation ribozyme variant] | 0.895 | 1.35 | 0.88 | 0.891 | 0.719 | 0.78 |
| AAGUUUGCUCAUAGUCGCAAA [Fam3.1 aminoacylation ribozyme variant] | 1.41 | 1.45 | 1.49 | 1.69 | 1.44 | 1.49 |
| AAGUUUGCUCAUAGUCGCAAG [Fam3.1 aminoacylation ribozyme variant] | 0.942 | 7.54 | 0.968 | 1.13 | 0.906 | 2.38 |
| AAGUUUGCUGAUAGUCGCAAG [Fam3.1 aminoacylation ribozyme variant] | 0.952 | 1.68 | 0.979 | 0.906 | 0.866 | 1.02 |
| AAGUUUGCUUAUAAUCGCAAG [Fam3.1 aminoacylation ribozyme variant] | 0.815 | 1.03 | 0.833 | 0.688 | 0.739 | 1.02 |
| AAGUUUGCUUAUAGUCGCACG [Fam3.1 aminoacylation ribozyme variant] | 0.855 | 1.27 | 0.815 | 0.961 | 0.932 | 0.924 |
| AAGUUUGCUUAUAGUCGCAUG [Fam3.1 aminoacylation ribozyme variant] | 0.999 | 1.33 | 0.918 | 0.857 | 0.926 | 0.976 |
| AAGUUUGCUUAUAGUUGCAAG [Fam3.1 aminoacylation ribozyme variant] | 0.987 | 0.81 | 0.877 | 0.919 | 0.894 | 0.591 |
| AAGUUUGGUAAUAGACGCAAG [Fam3.1 aminoacylation ribozyme variant] | 0.487 | 0.706 | 0.574 | 0.453 | 0.442 | 0.575 |
| AAGUUUGGUAAUAGUCGCAUG [Fam3.1 aminoacylation ribozyme variant] | 1.62 | 2.43 | 1.51 | 1.31 | 1.31 | 1.58 |
| AAGUUUGGUACUAGUCGCAAG [Fam3.1 aminoacylation ribozyme variant] | 1.7 | 2.39 | 1.66 | 2.03 | 1.57 | 1.73 |
